Data on 125 sequences can be found in the supplement of paper PMC9112550, “Optimization of the antimicrobial peptide Bac7 by deep mutational scanning” (BMC Biology, 2022).

In the data set the test system is Escherichia coli TOP10. Kind of data set: shrunken log2 fold change of peptide-encoding DNA abundance (4.5 h post-induction vs induction); higher = less antimicrobial activity (less host growth inhibition). Conditions: time post-induction: 4.5 h; library: site-saturation at positions 5, 18, 19, 20.
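Note: peptides expressed intracellularly from a pBAD plasmid library in pooled LB shake-flask culture, induced with 0.3% L-arabinose, DNA abundance read by NGS, three biological replicates, DESeq2 with apeglm shrinkage.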

As to RRIRSRPPRLPRPRPRPMMRPRP, the “shrunken log2 fold change” value amounted to 0.836. For the sequence RRIRNRPPRLPRPRPRPMQSPRP, the “shrunken log2 fold change” value is -0.0939. For RRIRCRPPRLPRPRPRPLPRPRP the value was 0.612. RRIRVRPPRLPRPRPRPPLAPRP: the “shrunken log2 fold change” value turned out to be 0.425.

As to RRIRTRPPRLPRPRPRPYYMPRP, the “shrunken log2 fold change” value is -1.06. For RRIRERPPRLPRPRPRPELHPRP the value was 0.0652; for RRIRARPPRLPRPRPRPWFCPRP, 0.0743; for RRIRLRPPRLPRPRPRPGGDPRP, 0.152. Turning to RRIRERPPRLPRPRPRPQMKPRP, the “shrunken log2 fold change” value is -0.568. RRIRLRPPRLPRPRPRPQNVPRP: the “shrunken log2 fold change” value was -0.523.

For RRIRYRPPRLPRPRPRPLIVPRP, the “shrunken log2 fold change” value was -0.895.

As for RRIRIRPPRLPRPRPRPYYVPRP, the “shrunken log2 fold change” value is -0.481. On to RRIRVRPPRLPRPRPRPIVSPRP, for which the “shrunken log2 fold change” value was -0.187.

Regarding RRIRKRPPRLPRPRPRPKEMPRP, the “shrunken log2 fold change” value came out at 0.682.

With RRIRDRPPRLPRPRPRPRSYPRP, the “shrunken log2 fold change” value was -0.0236. RRIRFRPPRLPRPRPRPPFMPRP: the “shrunken log2 fold change” value came out at 0.0431. Regarding RRIRRRPPRLPRPRPRPWHEPRP, the “shrunken log2 fold change” value is 0.041. The value for RRIRRRPPRLPRPRPRPFCSPRP was -0.0439; that for RRIRPRPPRLPRPRPRPMFCPRP was -0.332. Regarding RRIRRRPPRLPRPRPRPFSYPRP, the “shrunken log2 fold change” value amounted to 0.016. The value for RRIRSRPPRLPRPRPRPIPRPRP was 0.202. RRIRGRPPRLPRPRPRPNQPPRP: the “shrunken log2 fold change” value came to 0.295. Regarding RRIRYRPPRLPRPRPRPYIHPRP, the “shrunken log2 fold change” value is -1.31.

For RRIRNRPPRLPRPRPRPVNDPRP, the “shrunken log2 fold change” value is -0.15. For RRIRLRPPRLPRPRPRPFNPPRP the value was -0.349; for RRIRWRPPRLPRPRPRPFHTPRP, -0.171.

Consider RRIRSRPPRLPRPRPRPWKYPRP, for which the “shrunken log2 fold change” value is 0.0245. For RRIRPRPPRLPRPRPRPWNNPRP the value was -0.561; for RRIRTRPPRLPRPRPRPHDQPRP, 0.0187; for RRIRMRPPRLPRPRPRPASVPRP, 1.67. For RRIRARPPRLPRPRPRPLQEPRP the value was 0.604; for RRIRGRPPRLPRPRPRPWAPPRP, 0.452.

For RRIRARPPRLPRPRPRPAHLPRP, the “shrunken log2 fold change” value turned out to be 0.271. With RRIRERPPRLPRPRPRPLPMPRP, the “shrunken log2 fold change” value turned out to be 0.187. In the case of RRIRERPPRLPRPRPRPFRTPRP, the “shrunken log2 fold change” value was -0.11. For RRIRWRPPRLPRPRPRPIWSPRP the value was 0.629; for RRIRPRPPRLPRPRPRPDIAPRP, -0.0378. The value for RRIRGRPPRLPRPRPRPPFIPRP was 0.627; that for RRIRNRPPRLPRPRPRPEISPRP was -0.126. The value for RRIRHRPPRLPRPRPRPGHGPRP was 0.0264.

For the sequence RRIRTRPPRLPRPRPRPTKNPRP, the “shrunken log2 fold change” value was -0.083. For the sequence RRIRARPPRLPRPRPRPYCKPRP, the “shrunken log2 fold change” value was -0.376.

Take RRIRNRPPRLPRPRPRPHWVPRP: the “shrunken log2 fold change” value was -0.0512. Turning to RRIRNRPPRLPRPRPRPPMDPRP, the “shrunken log2 fold change” value is -0.508.

Consider RRIRVRPPRLPRPRPRPDEIPRP, for which the “shrunken log2 fold change” value worked out at 0.0183. Regarding RRIRWRPPRLPRPRPRPIHMPRP, the “shrunken log2 fold change” value is -0.246. The value for RRIRSRPPRLPRPRPRPMATPRP was 0.0201.

On to RRIRQRPPRLPRPRPRPPVFPRP, for which the “shrunken log2 fold change” value was determined as 0.247.

For RRIRFRPPRLPRPRPRPQGVPRP, the “shrunken log2 fold change” value came to 0.103. Consider RRIRYRPPRLPRPRPRPEMPPRP, for which the “shrunken log2 fold change” value is -0.0307. The value for RRIRFRPPRLPRPRPRPSWEPRP was -0.0476; that for RRIRIRPPRLPRPRPRPYTYPRP was -0.705; that for RRIRRRPPRLPRPRPRPKLFPRP was 0.37. Consider RRIRWRPPRLPRPRPRPDERPRP, for which the “shrunken log2 fold change” value was -0.00133. For RRIRERPPRLPRPRPRPDDIPRP, the “shrunken log2 fold change” value is -0.793. Regarding RRIRKRPPRLPRPRPRPLVHPRP, the “shrunken log2 fold change” value is 0.0415. As to RRIRYRPPRLPRPRPRPGMMPRP, the “shrunken log2 fold change” value was -0.426. As to RRIRMRPPRLPRPRPRPLRNPRP, the “shrunken log2 fold change” value amounted to 1.17. RRIRQRPPRLPRPRPRPGHEPRP: the “shrunken log2 fold change” value was found to be 0.104. The value for RRIRDRPPRLPRPRPRPIMHPRP was -0.0198.

Turning to RRIRGRPPRLPRPRPRPTPWPRP, the “shrunken log2 fold change” value worked out at 0.848. For RRIRGRPPRLPRPRPRPSDKPRP the value was 0.0485.

Take RRIRARPPRLPRPRPRPQTPPRP: the “shrunken log2 fold change” value amounted to 0.456. For RRIRTRPPRLPRPRPRPGSFPRP the value was 0.00381; for RRIRGRPPRLPRPRPRPCYWPRP, 0.553. Consider RRIRERPPRLPRPRPRPATHPRP, for which the “shrunken log2 fold change” value was -0.264. As for RRIRFRPPRLPRPRPRPPSSPRP, the “shrunken log2 fold change” value was 0.208. The value for RRIRSRPPRLPRPRPRPFWSPRP was -0.183. The value for RRIRMRPPRLPRPRPRPQTGPRP was -0.0549; that for RRIRKRPPRLPRPRPRPMMYPRP was -0.00208; that for RRIRNRPPRLPRPRPRPTSHPRP was -0.0916. For RRIRGRPPRLPRPRPRPRTRPRP, the “shrunken log2 fold change” value is 1.01.

With RRIRKRPPRLPRPRPRPCLIPRP, the “shrunken log2 fold change” value is -0.36. RRIRRRPPRLPRPRPRPPREPRP: the “shrunken log2 fold change” value amounted to 1.11.

Consider RRIRTRPPRLPRPRPRPVPYPRP, for which the “shrunken log2 fold change” value was -0.0764. The value for RRIRERPPRLPRPRPRPWIDPRP was -0.0474; that for RRIRPRPPRLPRPRPRPQCSPRP was -0.0986.

In the case of RRIRCRPPRLPRPRPRPNGWPRP, the “shrunken log2 fold change” value is -0.183. For RRIRCRPPRLPRPRPRPDFTPRP, the “shrunken log2 fold change” value was -0.0655.

For RRIRCRPPRLPRPRPRPEEQPRP, the “shrunken log2 fold change” value was -0.0372.

As to RRIRGRPPRLPRPRPRPWLTPRP, the “shrunken log2 fold change” value amounted to 0.134. Take RRIRIRPPRLPRPRPRPMQVPRP: the “shrunken log2 fold change” value was determined as 0.00763. For RRIRHRPPRLPRPRPRPFLCPRP the value was -0.172; for RRIRTRPPRLPRPRPRPAWFPRP, 0.131.

In the case of RRIRFRPPRLPRPRPRPTTFPRP, the “shrunken log2 fold change” value was -0.388. The value for RRIRHRPPRLPRPRPRPQQAPRP was -0.00588.

Consider RRIRGRPPRLPRPRPRPSTIPRP, for which the “shrunken log2 fold change” value came to 0.235. The value for RRIRMRPPRLPRPRPRPGWDPRP was 0.297; that for RRIRWRPPRLPRPRPRPTAPPRP was 0.481.

Consider RRIRMRPPRLPRPRPRPQEKPRP, for which the “shrunken log2 fold change” value came to 0.01. As to RRIRQRPPRLPRPRPRPWYHPRP, the “shrunken log2 fold change” value was -0.32. For RRIRRRPPRLPRPRPRPGENPRP the value was 0.066.

With RRIRQRPPRLPRPRPRPKIDPRP, the “shrunken log2 fold change” value is -0.146. Regarding RRIRARPPRLPRPRPRPTQSPRP, the “shrunken log2 fold change” value turned out to be 0.902. With RRIRTRPPRLPRPRPRPSSEPRP, the “shrunken log2 fold change” value is -0.0162. For RRIRARPPRLPRPRPRPRCVPRP the value was 0.347. The value for RRIRNRPPRLPRPRPRPNSTPRP was 2.34; that for RRIRWRPPRLPRPRPRPQCQPRP was 0.129. For RRIRLRPPRLPRPRPRPKEAPRP, the “shrunken log2 fold change” value is -0.011.

Turning to RRIRCRPPRLPRPRPRPERNPRP, the “shrunken log2 fold change” value is -0.223.

Turning to RRIRERPPRLPRPRPRPGSCPRP, the “shrunken log2 fold change” value was -0.0703.

Regarding RRIRVRPPRLPRPRPRPRICPRP, the “shrunken log2 fold change” value is -0.229.

Consider RRIRWRPPRLPRPRPRPREPPRP, for which the “shrunken log2 fold change” value is 0.35.

As to RRIRWRPPRLPRPRPRPTDNPRP, the “shrunken log2 fold change” value was -0.17. With RRIRDRPPRLPRPRPRPTDAPRP, the “shrunken log2 fold change” value was -0.036. For the sequence RRIRSRPPRLPRPRPRPSNFPRP, the “shrunken log2 fold change” value is -0.379. The value for RRIRLRPPRLPRPRPRPELCPRP was 0.173; that for RRIRGRPPRLPRPRPRPQARPRP was 0.3. The value for RRIRQRPPRLPRPRPRPCQRPRP was -0.0113; that for RRIRMRPPRLPRPRPRPRKKPRP was 1.43; that for RRIRMRPPRLPRPRPRPMHFPRP was -0.0157.

As to RRIRFRPPRLPRPRPRPWAFPRP, the “shrunken log2 fold change” value was -0.161.

As for RRIRRRPPRLPRPRPRPDQTPRP, the “shrunken log2 fold change” value was determined as 0.0174.

Turning to RRIRSRPPRLPRPRPRPADEPRP, the “shrunken log2 fold change” value amounted to 0.246.

In the case of RRIRLRPPRLPRPRPRPWLHPRP, the “shrunken log2 fold change” value is -0.0284. As for RRIRERPPRLPRPRPRPQAKPRP, the “shrunken log2 fold change” value amounted to 0.162. The value for RRIRGRPPRLPRPRPRPWMHPRP was -0.00858; that for RRIRLRPPRLPRPRPRPNEFPRP was -0.168. The value for RRIRVRPPRLPRPRPRPTGKPRP was -0.116; that for RRIRERPPRLPRPRPRPHSKPRP was -0.313; that for RRIRQRPPRLPRPRPRPHGRPRP was -0.0154.

As for RRIRWRPPRLPRPRPRPQVIPRP, the “shrunken log2 fold change” value is -0.127.

Consider RRIRRRPPRLPRPRPRPMTGPRP, for which the “shrunken log2 fold change” value was 0.0638. Regarding RRIRARPPRLPRPRPRPARDPRP, the “shrunken log2 fold change” value worked out at 0.298. The value for RRIRQRPPRLPRPRPRPKTVPRP was -0.093.
